Non-standard residues stand in square brackets, D forms with d. Residues, ends and D or L forms follow the SMILES beside them. *: point of attachment. DOTA = O=C(O)CN1CCN(CC(=O)O)CCN(CC(=O)*)CCN(CC(=O)O)CC1; Nle = CCCC[C@H](N)C(=O)O; X1 = NCCNCC(CNCCN)C(=O)*; AEEA = NCCOCCOCC(=O)O; βAla = NCCC(=O)O

In one data set the test system is AR4-2J tumors (rsst2+). On the set-up: species or system SCID mice. The settings on record: SCID, mouse, in vivo, 4 h. How it is done:
FIG. 1D: Biodistribution of [(^111In-DOTA)Ala^1]Somatostatin-14 in SCID mice bearing AR4-2J tumors (rsst2^+) at 4 h pi.
FIG. 2C: Biodistribution of [(^111In-DOTA)Ala^1, DTrp^8]Somatostatin-14 in SCID mice bearing AR4-2J tumors (rsst2^+) at 4 h pi.
Of great importance is the direct translation of PA-(or race) induced radiopeptide stabilization into meaningful and dramatic increase of tumor uptake in animals. Indeed, uptake in the rsst2^+ AR4-2J tumor after injection of ^111In[(DOTA)Ala^1]SS14 reached 13.87±2.4% ID/g in the PA-treated group at 4 h pi vs. 0.67±0.1% ID/g in the non-treated controls, while in the race pre-treated mice tumor values reached 3.51±0.2% ID/g, as presented in FIG. 1B. The corresponding values for the DTrp^8-analog, shown in FIG. 2B, reach 9.06±3.57% ID/g (PA group), 4.18±2.28% ID/g (race group) and 1.82±0.36% ID/g (non-treated controls).

On the set-up of data set [1]: species or system Swiss albino mice. As to conditions: mouse, in vivo, 5 min. How it is done: Whole blood was collected 5 min postinjection (pi), blood cells were removed and major proteins were precipitated and then the supernatant was analyzed by RP-HPLC coupled to a gamma detector.
Alternatively, the dual NEP and ACE inhibitor racecadotril (race; 2.5 mg) was ip injected 45-60 min prior to radioligand injection and the same procedure was followed as described above.
To test the in vivo stability, ^111In-DOTA-MG11 was injected in the tail vein of Swiss albino mice and 5 min afterwards blood was collected, blood cells were removed and major proteins were precipitated and then the supernatant was analyzed by RP-HPLC coupled to a gamma detector. As shown in the radiochromatogram of FIG. 3A, the major part of ^111In-DOTA-MG11 was consumed during this period (<5% intact peptide still detected), in agreement with previous reports. Further, ^111In-DOTA-MG11 was co-injected together with PA or injected 1 h after ip injection of race (2.5 mg) in more mice and the same protocol was followed as above. Amazingly, the percentage of ^111In-DOTA-MG11 found intact in the blood of the PA-treated mice was raised from <5% to 75% and in the race-pretreated mice to 73%.
For ex vivo blood analysis, [^99mTc]Demotensin 6 was injected in the tail vein of Swiss albino mice and blood collected 5 min thereafter was analyzed as previously described. The effect of PA on stability was studied by co-injection of PA along with [^99mTc]Demotensin 6. Furthermore, a PA dose study was performed with the PA injected dose ranging from 300 μg down to 0.03 μg and results are summarized in FIG. 4A.
Additional groups of radiopeptides with relevance for nuclear medicine applications have been studied for their in vivo stability. Radiopeptides were injected in the tail vein of healthy mice, either alone, or with a NEP inhibitor (PA—300 μg), or with a NEP (PA—300 μg) and an ACE (Lis—300 μg) inhibitor mixture; alternatively, another NEP inhibitor prodrug (race—2.5 mg) was ip injected in the animals ˜45 min prior to radioligand injection. Blood was collected 5 min afterwards, and analyzed by RP-HPLC after suitable preparation, as previously described.

The subject of data set [2] is human prostate adenocarcinoma PC-3 xenografts (GRPR+). On the set-up: species or system SCID mice. As to conditions: mouse, in vivo; for uptake in PC-3 tumor: SCID, 4 h. How it is done: FIG. 6C: Biodistribution of [^99mTc]SAR-NC1 in SCID mice bearing human prostate adenocarcinoma PC-3 xenografts (GRPR^+) at 4 h pi.
In FIG. 6B and FIG. 7B, the biodistribution of [^99mTc]SAR-NC1 and [^99mTc]SAR-NC6 in SCID mice bearing human prostate adenocarcinoma PC-3 xenografts (GRPR^+) at 4 h respectively, after injection of the radioligand alone or with co-injection of PA (300 μg) are shown.
It is interesting to note that with co-injection of the blocker and PA tumor values were minimal (0.69±0.03% ID/g) showing that PA provoked a GRPR-mediated increase in tumor uptake.
The effect of PA-induced stabilization of [^99mTc]Demobesin 1 on tumor uptake is illustrated in FIG. 10B, showing the biodistribution at 4 h pi after injection of [^99mTc]Demobesin 1 in SCID mice bearing human PC-3 xenografts (GRPR^+) (control), or with PA (300 μg).

Another data set has as its system WiDr tumors (hNTS1+). The data set is described as follows: Biodistribution / tumor uptake in SCID mice bearing WiDr tumors (hNTS1+). As to conditions: 4 h pi. How it is done:
FIG. 4H: Biodistribution of [^99mTc]Demotensin 6 in SCID mice bearing WiDr tumors (hNTS1^+) at 4 h pi. Bars represent average uptake as mean % injected dose per gram (% ID/g) of at least 4 animals with standard deviation (control at 4 h 2nd bars); three additional groups of animals received either excess NT(1-13) and PA (100 μg blocker and 300 μg PA—first bars), or PA (300 μg PA—3rd bars) or PA and Lis (300 μg PA+250 μg Lis—4th bars). Bl=blood, Li=liver, He=heart, Ki=kidneys, St=stomach, In=intestines, Sp=spleen, Mu=muscle, Lu=lungs, Pa=pancreas, Fe=femur and Tu=WiDr tumor.
FIG. 5H: Biodistribution of [^99mTc]Demotensin 1 in SCID mice bearing WiDr tumors (hNTS1+) at 4 h pi. Bars represent average uptake as mean % injected dose per gram (% ID/g) of at least 4 animals with standard deviation (control at 4 h 2nd bars); three additional groups of animals received either excess NT and PA (100 μg and 300 μg PA, respectively—first bars), or PA (300 μg PA—3rd bars) or PA and Lis (300 μg PA+300 μg Lis—4th bars). Bl=blood, Li=liver, He=heart, Ki=kidneys, St=stomach, In=intestines, Sp=spleen, Mu=muscle, Lu=lungs, Pa=pancreas, Fe=femur and Tu=WiDr tumor.
In FIG. 4B the effects of such regimens on SCID mice bearing the human colon adenocarcinoma WiDr tumor (a hNTS1R^+ tumor) on enhancing in vivo tumor targeting are presented.
In FIG. 5B the effects of above regimens on SCID mice bearing WiDr tumors (hNTS1R^+) on enhancing in vivo tumor targeting are shown.

For data set [3] the following is noted: mouse; cited from earlier work.
The next data set concerns AR4-2J tumors (rCCK2R+). Also noted: species or system SCID mice. The settings on record: mouse, in vivo. How it is done:
FIG. 3D: Biodistribution of ^111In-DOTA-MG11 in SCID mice bearing AR4-2J tumors (rCCK2R^+) at 4 h pi.
Biodistribution results in SCID mice bearing rCCK2R^+ AR4-2J tumors 4 h after injection of ^111In-DOTA-MG11 alone or together with PA or 1 h after ip injection of race are shown in FIG. 3B.

For `C[C@H](NC(=O)CN1CCN(CC(=O)O)CCN(CC(=O)O)CCN(CC(=O)O)CC1)C(=O)NCC(=O)N[C@H]1CSSC[C@@H](C(=O)O)NC(=O)[C@H](CO)NC(=O)[C@H]([C@@H](C)O)NC(=O)[C@H](Cc2ccccc2)NC(=O)[C@H]([C@@H](C)O)NC(=O)[C@H](CCCCN)NC(=O)[C@H](Cc2c[nH]c3ccccc23)NC(=O)[C@H](Cc2ccccc2)NC(=O)[C@H](Cc2ccccc2)NC(=O)[C@H](CC(N)=O)NC(=O)[C@H](CCCCN)NC1=O` [[(^111In-DOTA)Ala^1]Somatostatin-14, metal not drawn], the “uptake in AR4-2J tumor” value in the data set with AR4-2J tumors (rsst2+) came to 0.67±0.1 % ID/g.
Turning to `CSCC[C@H](NC(=O)[C@H](CC(C)C)NC(=O)[C@H](Cc1c[nH]cn1)NC(=O)CNC(=O)[C@@H](NC(=O)[C@H](C)NC(=O)[C@H](Cc1c[nH]c2ccccc12)NC(=O)[C@H](Cc1c[nH]cn1)NC(=O)[C@H](CC(N)=O)NC(=O)CNC(=O)C(CNCCN)CNCCN)C(C)C)C(N)=O` [[^99mTc]SAR-NC1, metal not drawn], in data set [1], the “percentage of parent peptide remaining intact” value turned out to be 30%. For the same compound, in data set [2], the “uptake in PC-3 tumor” value stood at 6.51±1.91 % ID/g.
For `CC[C@H](C)[C@H](NC(=O)[C@H](Cc1ccc(O)cc1)NC(=O)[C@@H]1CCCN1C(=O)[C@H](CCCN=C(N)N)NC(=O)[C@H](CCCN=C(N)N)NC(=O)CNC(=O)C(CNCCN)CNCCN)C(=O)N[C@@H](CC(C)C)C(=O)O` [[^99mTc]Demotensin 1, ^99mTc-N4-Gly-Arg-Arg-Pro-Tyr-Ile-Leu-OH, metal not drawn] (X1-GRRPYIL-OH), the “uptake in WiDr tumor” value stood at 4.58±0.47 % ID/g in the data set with WiDr tumors (hNTS1+) (PA 300 μg); 7.71±1.19 % ID/g in the data set on WiDr tumors (hNTS1+) (PA 300 μg + Lis (250 μg for Demotensin 6, 300 μg for Demotensin 1)); 1.20±0.21 % ID/g in the data set on WiDr tumors (hNTS1+) (non-treated controls). Also, the “uptake in WiDr tumor, blockade” value in the data set on WiDr tumors (hNTS1+) (excess NT 100 μg blocker + 300 μg PA) was determined as 0.23±0.09 % ID/g.
With `CCNC(=O)[C@H](CC(C)C)NC(=O)[C@H](Cc1c[nH]cn1)NC(=O)CNC(=O)[C@@H](NC(=O)[C@H](C)NC(=O)[C@H](Cc1c[nH]c2ccccc12)NC(=O)[C@H](CCC(N)=O)NC(=O)[C@@H](Cc1ccccc1)NC(=O)COCC(=O)Nc1ccc(CC(CNCCN)CNCCN)cc1)C(C)C` [[^99mTc]Demobesin 1, metal not drawn], the “uptake in PC-3 tumor” value in data set [2] is given as 12.73±0.93 % ID/g. In addition, the “in vitro stability in plasma” value in data set [3] is reported as “high in vitro stability”.
As to `CCCC[C@H](NC(=O)[C@H](CC(C)C)NC(=O)[C@H](Cc1c[nH]cn1)NC(=O)CNC(=O)[C@@H](NC(=O)[C@H](C)NC(=O)[C@H](Cc1c[nH]c2ccccc12)NC(=O)[C@H](CCC(N)=O)NC(=O)[C@H](CC(N)=O)NC(=O)CNC(=O)[C@H](Cc1ccc(O)cc1)NC(=O)[C@H](CCCN=C(N)N)NC(=O)[C@H](CCC(N)=O)NC(=O)[C@@H]1CCCN1C(=O)C(CNCCN)CNCCN)C(C)C)C(N)=O` [[^99mTc]Demobesin 4, metal not drawn], the “percentage of parent peptide remaining intact” value in data set [1] came to 26%. Moreover, the “uptake in PC-3 tumor” value in data set [2] stood at 11.26±1.81 % ID/g. The “in vitro stability in plasma” value in data set [3] is on record as “very high”.
Take `CC(C)C[C@H](NC(=O)C[C@H](O)[C@H](CC(C)C)NC(=O)[C@H](Cc1c[nH]cn1)NC(=O)CNC(=O)[C@@H](NC(=O)[C@H](C)NC(=O)[C@H](Cc1c[nH]c2ccccc12)NC(=O)[C@H](CCC(N)=O)NC(=O)[C@@H](Cc1ccccc1)NC(=O)CCNC(=O)CCNC(=O)CN1CCN(CC(=O)O)CCN(CC(=O)O)CCN(CC(=O)O)CC1)C(C)C)C(N)=O` [[^111In]JMV4168, [^111In]DOTA-βAla-βAla-DPhe-Gln-Trp-Ala-Val-Gly-His-Sta-Leu-NH2, metal not drawn]: in data set [2], the “uptake in PC-3 tumor” value turned out to be 10.22±2.40 % ID/g and the pancreas uptake result is “remained very low”.
For `CCCC[C@H](NC(=O)[C@H](Cc1ccccc1)NC(=O)[C@H](Cc1c[nH]cn1)NC(=O)CCNC(=O)[C@@H](NC(=O)[C@H](C)NC(=O)[C@H](Cc1c[nH]c2ccccc12)NC(=O)[C@H](CCC(N)=O)NC(=O)[C@@H](Cc1ccc(O)cc1)NC(=O)COCCOCCNC(=O)CN1CCN(CC(=O)O)CCN(CC(=O)O)CCN(CC(=O)O)CC1)C(C)C)C(N)=O` [[^111In]PanSarbesin 1, ^111In-DOTA-PEG2-DTyr-Gln-Trp-Ala-Val-βAla-His-Phe-Nle-NH2, metal not drawn] ({DOTA-AEEA}-[dY]QWAV[βAla]HF[Nle]-NH2), the “percentage of parent peptide remaining intact” value in data set [1] turned out to be 13%. In addition, the “uptake in PC-3 tumor” value in data set [2] is 3.75±0.73 % ID/g.
`CSCC[C@H](NC(=O)[C@H](Cc1c[nH]c2ccccc12)NC(=O)CNC(=O)[C@H](Cc1ccc(O)cc1)NC(=O)[C@H](C)NC(=O)[C@@H](CCC(=O)O)NC(=O)CN1CCN(CC(=O)O)CCN(CC(=O)O)CCN(CC(=O)O)CC1)C(=O)N[C@@H](CC(=O)O)C(=O)N[C@@H](Cc1ccccc1)C(N)=O` [^111In-DOTA-MG11, [(^111In-DOTA)DGlu^10]Minigastrin(10-17), metal not drawn] ({DOTA}-[dE]AYGWMDF-NH2): the “percentage of parent peptide remaining intact” value in data set [1] is reported as under 5%. Further, in the data set with AR4-2J tumors (rCCK2R+) (SCID, 4 h), the “uptake in AR4-2J tumor” value stood at 1.22±0.06 % ID/g. Also, in the data set with AR4-2J tumors (rCCK2R+), the “increase in the tumor by PA administration” value is listed as over 9 fold.

These data come from patent US11612667B2, “Enhanced in vivo targeting of radiolabelled peptides with the means of enzyme inhibitors” (Advanced Accelerator Applications USA, Inc., priority 2011, dated 2023).
